The source of these data is paper PMC5127643, “Dynamic control of Hsf1 during heat shock by a chaperone switch and phosphorylation” (eLife, 2016).

What all share (settings): both partners purified
In test [1] the target is T1, Hsf1-6xHIS phosphorylated in vitro by casein kinase II (S. cerevisiae, UniProt P10961 1-833, phosphorylated by casein kinase II (mobility shift); sites not stated).
T1 construct: Full-length wild type HSF1 cloned into pET32b with a C-terminal 6x-HIS tag; also called rHsf1 pre-incubated with ATP and active CKII; phosphorylated Hsf1; source: E. coli BL21(DE3), purified (Ni-NTA agarose), then phosphorylated in vitro with casein kinase II (NEB); not shown: 6xHIS, C-terminal, kept
T1 sequence (looked up): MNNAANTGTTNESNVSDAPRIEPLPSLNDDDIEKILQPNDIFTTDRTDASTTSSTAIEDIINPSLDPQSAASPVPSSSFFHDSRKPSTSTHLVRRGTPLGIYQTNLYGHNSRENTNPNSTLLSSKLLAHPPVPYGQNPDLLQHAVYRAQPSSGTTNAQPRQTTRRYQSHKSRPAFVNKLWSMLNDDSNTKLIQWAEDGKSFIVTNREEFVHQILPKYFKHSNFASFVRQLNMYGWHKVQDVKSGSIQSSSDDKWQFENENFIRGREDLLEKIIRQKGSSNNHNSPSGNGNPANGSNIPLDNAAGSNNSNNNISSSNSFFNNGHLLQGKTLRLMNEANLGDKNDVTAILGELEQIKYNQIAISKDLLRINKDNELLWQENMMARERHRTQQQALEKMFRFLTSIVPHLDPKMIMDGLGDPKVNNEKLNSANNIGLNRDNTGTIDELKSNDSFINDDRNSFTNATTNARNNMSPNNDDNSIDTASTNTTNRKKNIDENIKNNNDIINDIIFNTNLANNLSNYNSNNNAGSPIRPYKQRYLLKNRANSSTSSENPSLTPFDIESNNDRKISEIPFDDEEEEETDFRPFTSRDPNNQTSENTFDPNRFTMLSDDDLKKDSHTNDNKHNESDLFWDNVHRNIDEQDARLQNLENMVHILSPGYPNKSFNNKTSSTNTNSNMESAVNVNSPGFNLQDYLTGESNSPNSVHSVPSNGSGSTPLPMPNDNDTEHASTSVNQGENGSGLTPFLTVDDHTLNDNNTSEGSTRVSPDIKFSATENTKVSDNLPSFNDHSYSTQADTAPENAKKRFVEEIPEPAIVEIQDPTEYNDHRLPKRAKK
Kind of test: co-IP; anti-FLAG IP of recombinant proteins with 3xFLAG-rSsa2 as bait; rHsf1 pre-incubated with ATP alone, ATP and active CKII, or ATP and boiled CKII; Western blot anti-HIS for rHsf1.

The target of test [2] is T2, Hsf1-6xHIS (S. cerevisiae, UniProt P10961 1-833).
T2 construct: Full-length wild type HSF1 cloned into pET32b with a C-terminal 6x-HIS tag; pET32b normally adds N-terminal thioredoxin, His and S tags; Plasmids are in Supplementary file 2; also called rHsf1; recombinant Hsf1; source: E. coli BL21(DE3), purified (Ni-NTA agarose, imidazole elution); not shown: 6xHIS, C-terminal, kept
T2 sequence (looked up): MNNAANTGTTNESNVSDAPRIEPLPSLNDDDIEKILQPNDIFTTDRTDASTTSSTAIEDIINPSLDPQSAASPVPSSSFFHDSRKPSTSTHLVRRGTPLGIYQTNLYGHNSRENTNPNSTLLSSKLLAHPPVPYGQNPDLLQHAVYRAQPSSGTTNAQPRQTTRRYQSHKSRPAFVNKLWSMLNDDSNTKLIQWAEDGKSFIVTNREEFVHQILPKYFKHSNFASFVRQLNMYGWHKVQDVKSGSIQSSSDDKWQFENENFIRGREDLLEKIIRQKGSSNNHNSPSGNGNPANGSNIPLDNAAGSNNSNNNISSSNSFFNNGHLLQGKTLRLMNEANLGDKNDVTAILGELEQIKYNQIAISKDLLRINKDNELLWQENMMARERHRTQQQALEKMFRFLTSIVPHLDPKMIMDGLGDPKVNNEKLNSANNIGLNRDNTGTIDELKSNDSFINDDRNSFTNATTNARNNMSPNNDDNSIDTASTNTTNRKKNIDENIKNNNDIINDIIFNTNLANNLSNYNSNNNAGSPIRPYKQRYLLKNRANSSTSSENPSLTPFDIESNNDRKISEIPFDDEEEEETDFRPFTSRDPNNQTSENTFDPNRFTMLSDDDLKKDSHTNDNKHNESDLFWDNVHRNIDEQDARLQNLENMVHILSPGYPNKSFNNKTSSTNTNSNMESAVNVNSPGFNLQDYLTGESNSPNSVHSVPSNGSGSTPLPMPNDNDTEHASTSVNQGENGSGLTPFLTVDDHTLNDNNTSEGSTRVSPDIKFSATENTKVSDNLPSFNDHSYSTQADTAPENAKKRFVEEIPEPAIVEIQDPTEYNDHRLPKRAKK
The description is as above.

Test [3] concerns the target T3, 3xFLAG-Hsf1 (S. cerevisiae, UniProt P10961 1-833).
T3 construct: The text prints 3xFLAG-Hsf1 and the legend prints rHsf1-3xFLAG, so the tag end is left open; also called rHsf1-3xFLAG; rHsf1; source: construct not described in the methods
T3 sequence (looked up): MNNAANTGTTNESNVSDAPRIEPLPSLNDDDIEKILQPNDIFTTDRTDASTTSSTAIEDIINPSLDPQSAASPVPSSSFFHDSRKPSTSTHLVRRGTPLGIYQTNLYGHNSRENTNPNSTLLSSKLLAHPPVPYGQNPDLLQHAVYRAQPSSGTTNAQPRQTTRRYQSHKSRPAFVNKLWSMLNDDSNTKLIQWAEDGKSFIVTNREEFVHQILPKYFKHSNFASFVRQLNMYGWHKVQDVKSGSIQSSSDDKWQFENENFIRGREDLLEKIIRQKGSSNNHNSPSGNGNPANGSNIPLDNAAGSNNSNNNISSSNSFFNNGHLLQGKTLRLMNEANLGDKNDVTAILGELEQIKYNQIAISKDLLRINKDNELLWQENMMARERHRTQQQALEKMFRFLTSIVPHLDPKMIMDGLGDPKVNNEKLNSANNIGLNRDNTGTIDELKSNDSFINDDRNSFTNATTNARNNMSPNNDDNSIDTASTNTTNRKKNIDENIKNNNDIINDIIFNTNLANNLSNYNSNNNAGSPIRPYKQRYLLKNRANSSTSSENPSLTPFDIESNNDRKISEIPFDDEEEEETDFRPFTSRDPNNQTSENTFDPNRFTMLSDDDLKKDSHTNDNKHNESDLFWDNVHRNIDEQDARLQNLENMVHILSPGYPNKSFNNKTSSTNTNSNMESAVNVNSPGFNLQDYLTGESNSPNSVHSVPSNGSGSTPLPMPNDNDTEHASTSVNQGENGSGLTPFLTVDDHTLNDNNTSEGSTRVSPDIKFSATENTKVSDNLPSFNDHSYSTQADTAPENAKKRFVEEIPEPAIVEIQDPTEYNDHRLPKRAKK
In words: co-IP; anti-FLAG IP of recombinant proteins with rHsf1-3xFLAG as bait, Western blot anti-HIS for rSsa2; IP buffer alone or with 1 mM ATP.

For test [4], the target named is T4, Aβ42 peptide (UniProt P05067 672-713).
T4 construct: also called hydrophobic peptide
T4 sequence (P05067 672-713): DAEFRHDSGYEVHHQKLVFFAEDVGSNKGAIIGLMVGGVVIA
Kind of test: co-IP; anti-FLAG IP of recombinant proteins with rHsf1-3xFLAG as bait, in the presence of five-fold molar excess (25 µM) of Aβ42 peptide as competitor.

B1: 6xHIS-3xFLAG-Ssa2 (natural protein)
chain: not shown
notes: Full length SSA2 cloned into pET32b with an N-terminal 6xHIS-3xFLAG tag; pET32b normally adds N-terminal thioredoxin, His and S tags; Plasmids are in Supplementary file 2; also called FLAG-rSsa2; 3xFLAG-rSsa2; source: E. coli BL21(DE3), purified (Ni-NTA agarose, imidazole elution); not shown: 6xHIS, N-terminal, kept; 3xFLAG, N-terminal, kept
Turning to B1, the binding result in test [1] and in test [2] was “binds” each time.

B2: recombinant Ssa2 (HIS-tagged, tags reversed) (natural protein)
chain: not shown
notes: also called rSsa2; source: construct not described in the methods
Regarding B2, the binding result in test [3] and in test [4] was “binds” throughout.
